Results published in the supplement of paper PMC10567573.

B1: EHMT1 (parent)
chain: EEINKNISDFGRQQLLPPFPSLHQ
B2: TTC32 (parent)
chain: YSAYIRRCACAASSDESPGSKCSP

Variants of: B1
Test: protein stability index of a GFP-peptide fusion (GPS, HEK-293T) (PSI 1-6); higher = more stable
Details: c terminus: a fixed tail appended
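Also: lentivirally expressed fusions sorted by FACS into six bins by GFP to DsRed ratio, PSI derived from sequencing read proportions per bin multiplied by bin number.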

Protein stability index: each site, then its substitutions
E1: H 2.56, S 3.23, L 2.42, Y 2.11, T 2.9, C 2.44, A 2.47, F 2.3, N 2.44, K 2.74, G 2.7, M 2.35, D 2.58, I 1.76, P 2.54, W 1.91, Q 2.73, R 2.55, V 2.22
S8: E 2.86, T 2.77, R 2.71, G 2.55, H 2.77, K 3.02, W 2.02, M 2.72, Q 2.64, V 3.21, C 2.62, P 3.12, D 3.07, Y 2.53, L 2.12, F 2.64, A 3.22, N 2.46, I 2.82
N6: D 3.15, W 1.76, Y 2.09, V 2.71, F 1.91, A 2.85, I 2.17, G 2.91, P 2.92, S 3.15, C 2.44, R 2.1, Q 2.71, H 2.4, M 2.92, L 1.97, E 2.91, K 2.38, T 2.65
I7: H 2.73, E 3.38, W 2.52, C 2.88, K 2.79, M 3.03, Y 2.73, R 2.42, T 2.63, D 3.21, F 3.31, N 3.72, A 2.96, Q 3.58, S 2.83, V 2.98, G 3.3, P 2.38, L 2.97
N4: V 2.53, D 3.26, Q 2.7, H 2.94, G 2.48, A 2.63, P 2.69, I 2.02, E 2.86, Y 2.01, C 2.45, S 2.45, W 2.15, T 2.33, F 2.15, R 2.73, M 2.52, K 2.55, L 2.69
I3: S 3.13, M 2.74, N 3.31, E 3.78, T 3.11, R 2.69, C 2.76, D 3.77, G 3.01, F 2.91, Y 2.7, P 2.68, H 2.71, L 2.95, W 2.39, Q 2.69, K 3.02, A 3.1, V 2.9
D9: N 2.43, E 2.5, W 2.15, H 2.41, I 2.21, S 2.42, M 2.02, P 2.45, F 2.1, C 2.09, T 2.61, G 2.65, Q 2.63, L 2.58, A 2.38, Y 2.4, K 2.18, V 2.31, R 2.22
F10: I 2.52, A 3.04, Q 3.3, N 3.24, D 3.91, C 2.6, S 3.4, R 2.88, Y 3.11, G 3.39, W 2.59, H 2.99, T 2.86, P 3.31, L 2.91, V 3.04, E 3.37, M 3.04, K 3.45
E2: A 2.3, R 2.17, L 2.21, M 2.24, D 2.72, N 2.29, T 2.85, K 2.64, I 2.14, C 2.35, G 2.51, P 2.65, H 1.96, F 1.74, S 2.35, Q 2.36, Y 1.58, V 2.12, W 1.73
K5: T 3.16, G 2.71, A 3.05, D 3.37, R 2.57, P 3.06, L 2.72, Q 3.11, N 3.28, V 2.68, F 2.28, Y 2.13, C 2.54, S 2.84, I 2.51, W 2.6, H 2.86, E 3.15, M 3.23

Variants of: B2
Test: as above
Details: c terminus: a fixed tail appended

Protein stability index, by site and new letter:
C22: P 2.02, S 2.28, Q 2.02, N 2.28, M 1.71, V 2.1, D 2.22, F 1.69, H 2.14, K 2.35, I 1.85, E 2.96, W 2.41, Y 1.65, T 2.57, L 1.78, A 2.72, R 2.14, G 2.35
S17: T 2.37, P 2.44, L 1.78, V 2.02, K 1.94, Q 1.96, W 1.78, Y 1.68, M 2.2, R 2.28, N 2.22
P18: K 2.82, C 2.28, G 2.43, I 1.95, R 2.06, N 2.33, E 2.36, D 2.45, V 2.07, W 2.63, L 2.22, Q 1.96, M 1.68, T 2.42, S 2.37, A 1.83, F 2.68, Y 1.6, H 2.21
S20: R 1.65, V 1.79, Y 1.61, P 1.68, D 2.7, I 1.85, M 2.12, C 3.96, Q 2.21, K 2.23, G 1.97, H 2.8, T 2.14, A 2.13, N 2.11, W 1.85, E 2.15, F 1.93, L 2.15
G19: H 2.24, D 2.83, T 1.91, I 1.89, P 2.31, Y 2.35, N 2.24, E 2.31, F 2.32, R 2.04, C 4.24, M 1.74, Q 2, W 4.05, L 1.31, A 2.02, V 1.03, S 1.51, K 2.29
K21: P 2.93, M 3.54, C 2.37, V 1.62, Y 2.8, S 1.86, R 1.56, D 1.92, L 1.95, W 2.23, A 2.23, T 1.69, E 2.3, H 1.97, F 2.22, I 1.86, G 2.02, Q 1.98, N 2.11
P24: K 2.03, Y 1.54, L 2.1, A 2.03, M 2.24, G 2.23, H 2.54, C 4.33, I 2.25, V 2.93, T 2.03, F 1.35, N 2.31, W 1.91, R 2.2, Q 2.04, D 2, E 2.34, S 1.95
S23: I 1.4, H 1.6, Q 2.05, A 1.87, N 2.17, Y 1.5, R 2.44, C 2.26, P 2.02, M 1.61, D 2.46, K 2.06, G 2.08, L 2.08, T 2.09, E 2.14, F 1.9, V 2.52, W 2.53
